Literature values, collected in publication PMC5683942.

Assays:
[1] = target: Histone H4 K5buK8bu (Homo sapiens) (UniProt P62805)
[2] = target: Histone H4 K8ac (Homo sapiens) (UniProt P62805)
[3] = target: Histone H2A K5ac (Homo sapiens) (UniProt P0C0S8)
[4] = target: Histone H4 K12ac (Homo sapiens) (UniProt P62805)
[5] = target: Histone H4 K5ac (Homo sapiens) (UniProt P62805)
[6] = target: Histone H3 K14ac (Homo sapiens) (UniProt P68431)

| Substance | Kd [1] [µM] | Kd [2] [µM] | Kd [3] [µM] | Kd [4] [µM] | Kd [5] [µM] | Kd [6] [µM] |
| --- | --- | --- | --- | --- | --- | --- |
| BRD9 bromodomain (from UniProt Q9H8M2) | 60 |  |  |  |  |  |
| BRPF1 bromodomain (from UniProt P55201) |  | 697 | 48.5 | 86.5 | 1240 | 626 |
